What all share (assay type): cell-based
In data set [1] the test system is EmGFP gene in GRIPTITE HEK293 cells. Kind of data set: Sequencing analysis of FLAG tag/EcoRI insertion with +5 gRNA. To be noted: sequential delivery, 48 hours. How it is done:
In order to understand the polarity of dsDNA donor with single stranded overhangs, we inserted a FLAG epitope tag along with an EcoRI site into a separate locus where the +5 gRNA was targeting the bottom strand of EmGFP gene (see Table 21). The Cas9 RNPs were first delivered into […]™ HEK293 cells, followed by the delivery of ssDNA donor, or short dsDNA donors with 32-base single stranded overhangs at either 5′ or 3′ end. Samples in the absence of gRNA served as controls. At 48 hours post transfection, the genomic loci were amplified by PCR. The resulting PCR fragments were subjected to restriction digestion with EcoRI (data not shown) or subjected to sequencing analysis. The integration efficiency of FLAG epitope tag along with an EcoRI was approximately 34% using dsDNA donor with 3′ overhangs and 20% using ssDNA donor.

Data set [2] concerns HEK293 cells stably expressing eBFP. As to the kind of experiment: HDR assay, conversion of eBFP to GFP by flow cytometry. The following applies: oligonucleotide length and modification, sequential delivery, 1 nt substitution, 48 hours. The text has this:
To generate a HEK293FT stable cell line expressing eBFP, an eBFP ORF was synthesized by GENEART® custom DNA synthesis (Thermo Fisher Scientific) and then cloned into pDONAR221 vector. Using GATEWAY® recombination technology (Thermo Fisher Scientific), the eBFP ORF was transferred to pLenti6.2-DEST Gateway Vector and then verified by sequencing. Lentivirus was generated using VIRAPOWER® kit as described in the manual. To generate stable cell line, HEK293FT cells were transduced with 0.1 MOI of Lentivirus expressing eBFP. Three days post transduction cells were selected on 5 μg/mL Blasticidine antibiotics for 2 weeks. Cells expressing eBFP were then collected and diluted to […] in complete medium and plated into 96 well plates for single cell clone. After 2 weeks clones were isolated and verified for eBFP expression by flow cytometer. In a reporter assay using a stable eBFP-expressing HEK293 cell line, the substitution of C to T in eBFP gene converts His67 to Tyr67, generating a GFP variant (Table 5).
(§1) To create homologous recombination (HR) assays, a series of gRNAs flanking the insertion site within the EmGFP gene were designed and synthesized (Table 4). Each individual gRNA was combined with GENEART™ […]™ Cas9 Nuclease to form the Cas9 protein/gRNA ribonucleoprotein complexes (Cas9 RNPs). The Cas9 RNPs were then used to transfect cells via NEON® electroporation. The genomic cleavage efficiency was then evaluated using the GENEART® Genomic Cleavage Detection kit at 48 hours post transfection. The gRNAs with highest editing efficiencies and also in close proximity to the insertion site were selected for the subsequent HR assays. For donor design of a single-stranded oligonucleotide, typically the mutation site was positioned at the center flanked by 30 to 50 nucleotides on each side. For asymmetric donor design, 30 nucleotides were placed on either the left or right arm and then 50 or 67 nucleotides on the right or left arm respectively, in both PAM and non-PAM strands. For design of a dsDNA oligonucleotide with single-stranded overhangs, the insertion element was overlapped in the center flanked by various lengths of ssDNA oligonucleotide on each side. By annealing two single-stranded oligonucleotides at 95° C. for 3 minutes, dsDNA donor molecules with either a 5′ protrusion or a 3′ protrusion were generated. To measure homologous recombination efficiency, the donor DNA was either co-transfected with Cas9 RNPs or delivered sequentially into cells via electroporation. At 48 hours post transfection, the gain of EmGFP function in reporter cell lines was determined by flow cytometric analysis with an Attune® NxT Acoustic Focusing Cytometer (Thermo Fisher Scientific). Alternatively, the genomic loci were PCR-amplified using the corresponding primers and then subjected to GENEART® Genomic Cleavage Detection assay or restriction digestion. The resulting PCR products were also subjected to TOPO cloning. Typically, 96 colonies were randomly picked for sequencing. The sequencing data were analyzed using VECTOR NTI ADVANCE® 11.5 software (Thermo Fisher Scientific).
For each homologous recombination assay, 1.5 μg of Cas9 protein and 360 ng of gRNA were added to Resuspension Buffer R to a final volume of 7 μl, but limiting the total volume of Cas9 protein plus gRNA to less than 1 μl. The gRNA could be diluted in Buffer R if the concentration was too high. Upon mixing, the sample was incubated at room temperature for 5 to 10 minutes to form Cas9 RNPs. Meanwhile, […]™ HEK293 cells expressing either eBFP or disrupted EmGFP were detached from culture flask with TRYPLE™ Express Enzyme and then counted. Aliquots of 1×10^6 cells were washed once with DPBS without Ca^2+ and Mg^2+ and the cell pellets were resuspended in 50 μl of Resuspension Buffer R. A 5 μl aliquot of cell suspension was mixed with 7 μl of Cas9 RNPs. […] The electroporated cells were transferred to 300 μl of […]. […]
Background: Flow cytometry measures light scatter and fluorescence of single cells or particles in a stream.

A further data set deals with eBFP genomic locus. Kind of data set: Sequencing verification of eBFP locus, 1 nt substitution (96 clones). To be noted: sequencing of 96 clones; for Relative percentage HDR / Relative percentage NHEJ / Relative percentage wt: 1 nt substitution. How it is done:
FIG. 8. Effects of oligonucleotide length and modification on HDR. (A) PAM ssDNA (6 nt insertion). […] Various length of PAM ssDNA oligonucleotide was normalized to either equal mass or equal molarity. Samples in the absence of donor (+gRNA) or gRNA (−gRNA) served as controls. The percentages of GFP-positive cells were determined by flow cytometry at 48 hours post transfection. (B) PAM ssDNA (1 nt substitution). […] The percentages of GFP-positive cells were determined by flow cytometry at 48 hours post transfection. (C) Verification by sequencing. The eBFP genomic locus was PCR-amplified, followed by cloning and Sanger sequencing of 96 samples. The relative percentage of wild type (wt), NHEJ, and HDR was plotted. (D) Examples of mutations. Examples of edited clones (not representing the actual percentages of NHEJ and HDR). FIG. 8 discloses SEQ ID NOs: 4-14, respectively, from top to bottom.
as §1
It has been reported that relatively short single-stranded oligonucleotides containing 25-61 bases homologous to the target sequence were capable of correcting a single point mutation (Igoucheva, O., Alexeev, V., Yoon, K., Targeted gene correction by small single-stranded oligonucleotides in mammalian cells, Gene Ther. 8(5):391-399 (2001)). […]

Where [3] appears, read: listed as 80-base modified oligonucleotide.

Oligonucleotides are written 5' to 3', each unit as a sugar letter and its base; * is a phosphorothioate linkage, no mark a phosphodiester; rarer units and linkages stand in square brackets, end groups in braces. Plain capitals give the bases only. d = 2'-deoxy (DNA); {P} = phosphate

B1: 32-5′: short dsDNA donor with 32-base 5′ overhangs, EmGFP, SEQ ID 98 and 99 (nucleic acid)
chain 1: GCCCGTGCCCTGGCCCACCCTCGTGACCACCTGACTACAAAGACGATGACGACAAGAATTCTA
chain 2: GTCGGGGTAGCGGGCGAAGCACTGCACGCCGTAGAATTCTTGTCGTCATCGTCTTTGTAGTC
modifications: DNA, backbone and methylation of C not given here; further chemistry not fully specified
Take B1: in data set [1], the “Relative % HDR (integration of FLAG epitope tag along with EcoRI)” value is 0.0%, the “Relative % NHEJ” value amounted to 78.0% and the Relative % wt stood at 22.0%. Further, in data set [1] (listed as dsDNA donor with 5′ overhangs), the “Relative % HDR (integration of FLAG epitope tag along with EcoRI)” value is “barely detectable integration product”.

B2: PS80: phosphorothioate 80-mer ssDNA, BFP point mutation, SEQ ID 49 (nucleic acid)
DNA: {P}-dG*dC*dTdGdCdCdCdGdTdGdCdCdCdTdGdGdCdCdCdAdCdCdCdTdCdGdTdGdAdCdCdAdCdCdCdTdGdAdCdCdTdAdCdGdGdCdGdTdGdCdAdGdTdGdCdTdTdCdAdGdCdCdGdCdTdAdCdCdCdCdGdAdCdCdAdCdAdT*dG*dA
In the case of B2, the “Avg (% GFP+ cells)” value in data set [2] was 44.3%. Further, the “Avg (% GFP+ cells)” value in data set [2] (setting [3]) was “approximately 45%”. Further, in the data set on eBFP genomic locus, the “overall genome modification efficiency” value is approximately 94%, the “Relative percentage HDR” value is on record as 40.4%, the “Relative percentage NHEJ” value worked out at 53.8% and the Relative percentage wt is 5.8%. Besides, in the data set on eBFP genomic locus (setting [3]), the “Relative percentage HDR” value was “Approximately 40%”, the “Relative percentage NHEJ” value is “approximately 54%” and the Relative percentage wt result is on record as “approximately 6%”.

For the origin of these results see patent publication US10428327B2, “Compositions and methods for enhancing homologous recombination” (LIFE TECHNOLOGIES CORPORATION, priority 2016, dated 2019).
